Test results from paper PMC7459334, “Akkermansia muciniphila uses human milk oligosaccharides to thrive in the early life conditions in vitro” (Scientific Reports, 2020).

Assays:
Assay in all cases: purified protein
[1] = substrate: CC(=O)N[C@H]1[C@H](Oc2ccc([N+](=O)[O-])cc2)O[C@H](CO)[C@@H](O)[C@@H]1O; type: biochemical, Akkermansia muciniphila; details: McIlvaine buffer
[2] = substrate: O=[N+]([O-])c1ccc(O[C@@H]2O[C@H](CO)[C@H](O)[C@H](O)[C@H]2O)cc1; details: McIlvaine buffer, pH 5.0, 37 °C
[3] = substrate: C[C@@H]1O[C@@H](Oc2ccc([N+](=O)[O-])cc2)[C@@H](O)[C@H](O)[C@@H]1O; type: biochemical, Akkermansia muciniphila; details: McIlvaine buffer, pH 5.6, 37 °C, text b19 prints 839 ± 46.72
[4] = pH 5.6, 37 °C, text b19 prints 322.37 ± 43.64

B1: Amuc_2136 (Akkermansia muciniphila ATCC BAA-835) (protein)
chain: QDAKQIADSLSIPPVKAGAKQLPMPSVSGAQIKLLGADYEQLVNSKGKIAPVISDTPVNVSFKVTKDGKEAVSKDYEIMLQAPQAAQGNPKPRIIPEILQWKGGQGEYKLGNTVTIACPDKELGKLFAADMEDVLGKKVKLVAPGAKADISLSLLKGGNLGREGYRLQIARDGVRLGAAAPTGLFWGTRTLLQMLRQTPGSVPCGTAVDFPRYQLRGFMLDVARTPYPLSYLKDVIRTMAWYKMNDLHLVINNNYIFHEHYVDNGHDPFKESYAAFRLESKMKGKDGTPLTARDLFYTKKEFADLVSYARKYGVNIVPEFDTPGHALSFTRLRPDLIYKGPMNHEKRRCEMLDAANPETIDLVSKVFDEYMLKDPKLGRPVFADCGVVHVGADEFYGDKEDYRHFANAVLTHALKRGYTPRIWGSLSAKPGKTPVVSKGVQMNLWSTGWMKAWEAVNQGYDVINTNDGALYIVPFAGYYRMDRNHKGLYNNWIPNRIGNETLPSGHPQLLGGTFAVWNDETDIMHTGYAPYDIWGIISGSMDVLSQKLWGTAKAPDTFEQHRELVSSIGNAPRTNPLHKWKDSQPLTVKPSSLPQKLDKPALGPNYRLTMELELTAAPEGKEQVLLAAPEGELLAVMKDGTVGFRRDDSLEFSFGAKLPVGKKVKVEIVGEPEKTSLLLDGEPAGTAVLKNFSDKSKDFSDKFKHRPKVHRSTFILPLKELGSSFQGKVFHMNVQPL
Protein B1 has a Km ([1]; pH 5.0, 37 °C) of 714.55 ± 47.96 µM, a Vmax ([1]; pH 5.0, 37 °C) of 109 µM/min and a kcat ([1]; pH 5.0, 37 °C) of 1490 s⁻¹. The kcat/Km ([1]; pH 5.0, 37 °C) was 2.08e+06 M⁻¹ s⁻¹.

B2: Amuc_0771 (Akkermansia muciniphila ATCC BAA-835) (protein)
chain: GPEAVQNVQKPALSGGPPVVFGFGGEGNQEFMLNGKPFQIRGAEMHPQRIPREYWRHRIRTAKAMGLNTIAFYVFWNDHEQPDGSFDFKTGNRDLEGFLKLCQEEGMWVLFRPGPYACGEWDLGGLPHYLLKDPKAKLRTTEDAKFMKAQTRYLEAVARVAEPFLAKNGGPILMTQLENEYGSYQRKDRKYMEWLKAFWSRKGFGPFYTSDGAGEHFLKGVVLPGVAVGLDPGLNDGHWAVANKCNPGVPVFSSETYPGWLRHWGEGNWAPTPGVVNHVRWFMDKGRSFSLFVFHGGTNFGFSAGANNGGPGKYQPDLTSYDYGSPVDEQGRMNEYYAQMREIILKKLPPEAAVPEPPADIPAMEIPEFTPAVHAGLWENLPKPFRSKFPQPPYFEQWNQNQGIAVYRTAVPSGPPETLEFTNVNDYAQVYLDGELVGTLDRRLGQKSVKLPERRKPGTLEVLVEAMGHINFHISMESDRKGIYGPVKLGTRELKNWTVRALPLKADSIVRAPKGKGPSQKREGAHFRAVVNIEEPQDTFLDMSRYVKGYVWVNGINVGRYWNVGPQLRLYVPAPFLKKGENVIDILDLHEKEPKPVRGMKERNKEPGKINTKNLDNQW
For B2, the Km [2] was 2,599 ± 565.27 μM, the Vmax [2] was 60.1 µM/min and the kcat [2] was 13.8 s⁻¹. It also gave a kcat/Km [2] of 5670 M⁻¹ s⁻¹.

B3: Amuc_1686 (Akkermansia muciniphila ATCC BAA-835) (protein)
chain: AAPMPLPESNDGARHVFSTNQENFLMDGKPVKIISGEMHYPRVPRQHWKDRFQRIKAMGMNTVCTYLFWNVHEPEPGKWDFSGNLDFVEFIKEAQKAGLWVIVRPGPYVCAEWEFGGFPGWLLKDEDLKVRSQDPRFLEPAMAYLKKVCSMLEPLQITKGGPIIMAQVENEYGSYGSDKDYVKKHLDVIRKELPGVVPFTSDGPNDWMIKNGTLPGVVPAMNFGGGAKGAFANLEKHKGKTPRINGEFWVGWFDHWGKPKNGGSTEGFNRDLKWMLENNVSPNLFMAHGGTSFGFMNGANWEGAYTPDVTNYDYGAPISENGTLTDRYRTFRQTIQDYYGDTYKLPEPPAQPEMMELPPITFTETAGMFSRLPQPVIRKEPVHMEALGQSLGFILYRTKVNGPVKGELKMNNMQDRAIVYVDGKRQGAADRRYKQDSCDIVIPSGLHTVDIFVENMGRINFGGQIQGERKGIRGPITLDGKKLENFLIYNFPCKGVELIPFSGKKPAGDQPVFHRGYFNVSNPKDTYLDMRDGWKKGVVWVNGRNLGRFWFIGSQQALYCPGEYLKPGKNEIVVLDVDGGSGTVKGVKEAIYEVNRDPAMADVFRVGKPVAPAAGQLVHKGSFAKGADQQEIKFRAPVQARYIAIVSKNAHDNGPHAAIAELNFLDASGNLLPREQWSVVYADSHETTGEAAQAGLVMDNQPTTYWHTKWQGDNPRHPHMIVLDLGKVQKLSGFRYLPRQDRENGRIKDYEVYASPKPFKPAK
Protein B3 has a Km [2] of 319.40 ± 259.30 µM, a Vmax [2] of 29.3 µM/min and a kcat [2] of 27.2 s⁻¹. The kcat/Km [2] was 70200 M⁻¹ s⁻¹.

B4: Amuc_0010 (Akkermansia muciniphila ATCC BAA-835) (protein)
chain: QQSATKIITENGQPALALDEQFAARLRDGGMKQGSPATVPAEFSAAAPGLPLPADANHAAVRETAGERNRRMEWWRDAKFGMFIHYGLYSGLAGEWKGRPGGSEWIQKNVEVDTDTYAAEALPLFKPREGLTEEWAQLARDAGCQYVVLTSKHHEGFGLFDSALTDYDAKSAVNRDIIREYVDSCRKRGLKVGLYHSVIDWHHPSYDNTICPDLCYPAGQAAMLNRKNIPRDHAAYQKYLHAQVRELMTRYAPIDIMWWDYSQGAMEGAKGWKAPELMDMVRSINPGVIMNNRLYAYSGLNKNQAGTLDLRCGDYITPERFIPRRGYPGVDWESCMTVSDKWGYNRYDTNIKSPETIIEKLVECVTKGGNLLLNVNPMADGTIPEKVAATMRGVGRWLNINGEAVYGTRAFMQLDQPATINRQGDIFIFLIPPPDKEPAQPPSEGTMKELTAGAEHARMQPLDATGYENDGGTAVTLPAGYSKALLLGDNTALPVVNGTVLFKAHEHSKTPCSVIKLSK
In the case of B4, the Km [3] is reported as 841.23 ± 46.72 µM, the Vmax [3] is reported as 19.8 µM/min and the kcat [3] is reported as 378 s⁻¹. For the same protein, the kcat/Km [3] was 451000 M⁻¹ s⁻¹.

B5: Amuc_0369 (Akkermansia muciniphila ATCC BAA-835) (protein)
chain: QEQIIPKPAEITLFTGSPARLTPDSLIITETQDKAFLDQAGQLQQMLSAGTGLPLPLKPAGQASKKAACIVIKKDPALAARGEEAYSIQSSPSGIILSAADARGIFYAGQSLVQMMPSVFHDRTGDKSAVRWNISETPFRITDYPRFSWRALMIDEARHFFGEKTIKQIIDQMALLKMNILHWHLTDDTGWRIEIKKYPRLTSIGSKRRESEIGTWNSGKSDGTPHEGFYTQEQIRDIVQYAARRNITIVPEIEMPGHASAAAVAYPFLSLKTPGEVPTTFIVNTAFDPTSEKTYAFLSDVLDEVTAIFPGRIIHIGGDEVRYDKQWKGVPEIEEFMKKNGMKSYADVQMHFTNRMSGIIAQKGRRMMGWNEIYGHDVNGDGGGKAGAKLDTNAVIQFWKGNTSLAKNAIRDGHDVINSLHTSTYLDYSYGSIPLQKAYGFEPVFPGLEKQYHSRVKGLGAQVWTEWISTPERLHYQAFPRACAFAEVGWTPAGKKDFPDFKKRLKAYSERMDLMGIKFARNVISQIDKSDFFNTPRIGTWTPATLTREEHSFDVTKLVKASGKHTVTLLYDKGAHAIEIESVALYENSREVSRDAHAGRSGAHKENIQYILNAPAPRQGATYTVKANFKGAGGRDSHGTVYFETP
Work on B5 yielded a Km [1, 4] of 323.38 ± 43.64 µM, a Vmax [1, 4] of 55.6 µM/min and a kcat [1, 4] of 670 s⁻¹. The kcat/Km [1, 4] was 2.07e+06 M⁻¹ s⁻¹.
